Assay results published in US20200392228A1 (PANDION OPERATIONS, published 2020).
Read-outs that look alike come from different tables or passages of the source.

T1: mouse MAdCAM expressed on cells (mouse, UniProt Q61826 22-405)
T1 construct: whole, on cells
T1 sequence (looked up): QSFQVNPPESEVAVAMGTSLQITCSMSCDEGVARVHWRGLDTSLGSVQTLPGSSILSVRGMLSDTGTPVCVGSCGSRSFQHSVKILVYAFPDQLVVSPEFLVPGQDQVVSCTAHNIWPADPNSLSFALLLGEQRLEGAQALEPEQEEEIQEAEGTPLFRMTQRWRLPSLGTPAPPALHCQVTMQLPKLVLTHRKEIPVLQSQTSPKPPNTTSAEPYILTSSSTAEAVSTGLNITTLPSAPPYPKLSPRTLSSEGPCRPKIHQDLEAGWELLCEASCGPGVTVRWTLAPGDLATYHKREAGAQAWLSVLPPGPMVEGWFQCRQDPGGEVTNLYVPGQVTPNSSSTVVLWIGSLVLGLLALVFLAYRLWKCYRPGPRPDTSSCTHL

T2: human MAdCAM expressed on cells (human, UniProt Q13477 19-382)
T2 construct: whole, on cells; also called MADCAM1
T2 sequence (looked up): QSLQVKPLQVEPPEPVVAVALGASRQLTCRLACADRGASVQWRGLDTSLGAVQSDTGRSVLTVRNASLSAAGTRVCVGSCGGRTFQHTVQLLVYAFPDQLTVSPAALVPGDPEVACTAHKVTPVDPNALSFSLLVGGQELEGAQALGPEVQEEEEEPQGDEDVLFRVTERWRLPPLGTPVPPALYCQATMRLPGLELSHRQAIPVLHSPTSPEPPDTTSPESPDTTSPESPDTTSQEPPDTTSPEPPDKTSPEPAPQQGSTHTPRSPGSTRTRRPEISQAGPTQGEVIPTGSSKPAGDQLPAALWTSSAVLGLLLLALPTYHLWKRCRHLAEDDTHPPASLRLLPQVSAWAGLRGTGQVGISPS

T3: human MAdCAM protein (human, UniProt Q13477 19-317)
T3 construct: used for Octet, SPR, ELISA and plate capture; construct not described; also called recombinant human MAdCAM; soluble monomeric human MAdCAM
T3 sequence (looked up): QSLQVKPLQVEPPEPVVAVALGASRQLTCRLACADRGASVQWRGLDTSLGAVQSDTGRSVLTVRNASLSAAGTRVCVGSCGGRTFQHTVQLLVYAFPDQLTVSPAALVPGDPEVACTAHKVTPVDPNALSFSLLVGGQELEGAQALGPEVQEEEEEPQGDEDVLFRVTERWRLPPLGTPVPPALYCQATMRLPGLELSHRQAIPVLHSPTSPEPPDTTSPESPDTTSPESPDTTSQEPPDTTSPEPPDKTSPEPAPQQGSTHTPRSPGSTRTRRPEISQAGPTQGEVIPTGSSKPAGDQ

T4: mouse MAdCAM protein (mouse, UniProt Q61826 22-365, limits assumed)
T4 construct: also called recombinant mouse MAdCAM-1; mMAdCAM-1
T4 sequence (looked up): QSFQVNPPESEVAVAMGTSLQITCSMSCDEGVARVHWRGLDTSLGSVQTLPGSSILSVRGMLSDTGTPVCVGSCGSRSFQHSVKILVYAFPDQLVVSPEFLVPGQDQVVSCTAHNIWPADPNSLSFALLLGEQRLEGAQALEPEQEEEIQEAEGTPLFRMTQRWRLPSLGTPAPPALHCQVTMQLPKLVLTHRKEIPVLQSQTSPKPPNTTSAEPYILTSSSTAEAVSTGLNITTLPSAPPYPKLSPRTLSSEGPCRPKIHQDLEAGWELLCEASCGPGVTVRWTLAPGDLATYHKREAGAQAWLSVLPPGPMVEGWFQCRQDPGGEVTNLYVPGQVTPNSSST


Experiments:
[1] = biological target: T1, mouse MAdCAM expressed on cells; test: cell binding
[2] = biological target: T2, human MAdCAM expressed on cells; test: cell binding
[3] = biological target: T3, human MAdCAM protein; test: Octet
[4] = biological target: T4, mouse MAdCAM protein; test: Octet
[5] = biological target: T1, mouse MAdCAM expressed on cells; test: cell binding; remark: listed apart in the source
[6] = biological target: T2, human MAdCAM expressed on cells; test: cell binding; remark: listed apart in the source

Binder	binding result [1]	binding result [2]	binding result [3]	binding result [4]	binding result [5]	binding result [6]
MAdCAM antibody Clone ID 65 of Table 6 (scFv) (scFv) scFv: QVQLVQSGAEVKKPGASVKVSCKASGYTFTRHWIHWVRQAPGQGLEWMGWINVKTGGAGYAQKFQGRVTMTRDTSTSTVYMELSSLRSEDTAVYYCARESSGWYGTDVWGQGTTVTVSSGGGGSGGGGSGGGGSGGGGSDIQMTQSPSSLSASVGDRATITCRASQSISNYLAWYQQKPGKAPKLLIYAASSLQSGVPSRFSGSGSGTDFTLTISSLQPEDFATYYCQQSNSFPLTFGGGTKVEIK	binds	binds	binds			
MAdCAM antibody Clone ID 66 of Table 6 (scFv) (scFv) scFv: EVQLLESGGGLVQPGGSLRLSCAASGFTFSSYWMHWVRQAPGKGLEWVAAISYDGKYKDYEDSVKGRFTISRDNSKNTLYLQMNSLRAEDTAVYYCARENKQWLASFDYWGQGTLVTVSSGGGGSGGGGSGGGGSGGGGSDIQMTQSPSSLSASVGDRVTITCQASQDISNFVNWYQQKPGKAPKLLIYAANLRSGVPSRFSGSGSGTDFTLTISSLQPEDFATYYCQQANSFPVTFGPGTKVDIK	binds	binds	binds			
MAdCAM antibody Clone ID 28 of Table 7 (IgG) (antibody, V domains shown, IgG format) VH: EVQLLESGGGLVQPGGSLRLSCAASGFTFSSYAMSWVRQAPGKGLEWVSYISSSSTYTNYADSVKGRFTISRDNSKNTLYLQMNSLRAEDTAVYYCARANSSSWYDWYFDLWGQGTLVTVSS VL: not shown				no binding	no binding	
MAdCAM antibody Clone ID 29 of Table 7 (IgG) (antibody, V domains shown, IgG format) VH: EVQLLESGGGLVQPGGSLRLSCAASGFTFSSYQMSWVRQAPGKGLEWVSYISSSSTYTNYADSVKGRFTISRDNSKNTLYLQMNSLRAEDTAVYYCARANSSSWYDWYFDLWGQGTLVTVSS VL: not shown				no binding	no binding	
MAdCAM antibody Clone ID 24 of Table 7 (IgG) (antibody, V domains shown, IgG format) VH: EVQLVESGGGLVKPGGSLRLSCAASGFTFSSYWMSWVRQAPGKGLEWVSRISSDGRITTYAAPVKGRFTISRDDSKNTLYLQMNSLKTEDTAVYYCARGTSYCTGGVCDIDYWGQGTLVTVSS VL: DIQMTQSPSSLSASVGDRVTITCRASQSIGRNLNWYQQKPGKAPKLLIYSASNLQSGVPSRFSGSGSGTDFTLTISSLQPEDFATYYCQQSYSIPLTFGPGTKVDIK				no binding	no binding	binds
MAdCAM antibody Clone ID 14 of Table 7 (IgG) (antibody, V domains shown, IgG format) VH: QVQLVQSGAEVKKPGSSVKVSCKASGYTFTNYYMHWVRQAPGQGLEWMGGIIPIVDGVKYAQKFQGRVTITADESTSTAYMELSSLRSEDTAVYYCAKGQFTGNYYYGMDYWGQGTLVTVSS VL: DIQMTQSPSSLSASVGDRVTITCQANQDISNYLNWYQQKPGKAPKLLIYRASKLEAGVPSRFSGSGSGTDFTLTISSLQPEDFATYYCQQSSEIPYSFGQGTKVEIK				no binding	no binding	
MAdCAM antibody Clone ID 74 of Table 7 (IgG) (antibody, V domains shown, IgG format) VH: QVQLVQSGAEVKKPGASVKVSCKASGYTFTGYYMHWVRQAPGQGLEWMGIINPSGGNTKYAQKFQGRVTMTRDTSTSTVYMELSSLRSEDTAVYYCTTADYYYYMDVWGKGTTVTVSS VL: DIQMTQSPSSLSASVGDRVTITCRASQGISNYLAWYQQKPGKAPKLLIYAASSLQSGVPSRFSGSGSGTDFTLTISSLQPEDFATYYCQQYYSNADFGQGTKVEIK				no binding	no binding	
MAdCAM antibody Clone ID 65 of Table 7 (IgG) (antibody, V domains shown, IgG format) VH: QVQLVQSGAEVKKPGASVKVSCKASGYTFTSYDINWVRQAPGQGLEWMGWMNPNSGNTGYAQKFQGRVTMTRDTSTSTVYMELSSLRSEDTAVYYCAKDSDYSNLLWDYWGQGTLVTVSS VL: DIQMTQSPSSLSASVGDRVTITCRASQDITNDLGWYQQKPGKAPKLLIYQASSLESGVPSRFSGSGSGTDFTLTISSLQPEDFATYYCQQSYTIPLTFGQGTKVEIK				no binding	no binding	
